According to PMC8641930, “PLK1 regulates the PrimPol damage tolerance pathway during the cell cycle” (Science Advances, 2021):
Changes are numbered by the printed parent chain. Numbers in names are those of the source.

Target: T1, RPA70N (RPA70 1-120) (UniProt P27694 1-120)
T1 construct: Replication Protein A 70 kDa subunit (RPA70), N-terminal domain, residues 1-120; source: E. coli BL21, purified (Ni-NTA, thrombin cleavage of the tag, Superdex 75 SEC)
Assay: SEC; analytical size exclusion chromatography, Superdex 75 10/300 GL; 50 mM tris-HCl, 100 mM NaCl, 2 mM TCEP; CTD variants mixed with RPA70N at 35 uM; interaction read as a shift of the peaks relative to the single proteins
Conditions: both partners purified

T1 sequence (P27694 1-120): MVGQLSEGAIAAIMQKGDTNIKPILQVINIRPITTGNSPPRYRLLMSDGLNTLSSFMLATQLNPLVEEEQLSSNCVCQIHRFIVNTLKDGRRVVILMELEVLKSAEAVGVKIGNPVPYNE

B1: PrimPol CTD (PrimPol 480-560) (domain or fragment, human, UniProt Q96LW4 480-560, looked up)
chain: TTDEADETRSNETQNPHKPSPSRLSTGASADAVWDNGIDDAYFLEATEDAELAEAAENSLLSYNSEVDEIPDELIIEVLQE
notes: also called C-terminal region of WT PrimPol; PrimPol C-terminal domain; source: E. coli BL21, purified (Ni-NTA, Q-Sepharose, Superdex 75 SEC)
Does B1 bind?
Result: binds

B2: PrimPol CTD (PrimPol 480-560) S538E (domain or fragment, human, UniProt Q96LW4 480-560, looked up)
chain: B1 chain with S59E
notes: Primase-Polymerase (PrimPol), human, C-terminal domain, residues 480-560, phosphomimetic mutant S538E; also called C-terminal region of mutant PrimPol; CTD S538E; source: E. coli BL21, purified (Ni-NTA, Q-Sepharose, Superdex 75 SEC)
Does B2 bind?
Result: binds

B3: PrimPol CTD (PrimPol 480-560) S538A (domain or fragment, human, UniProt Q96LW4 480-560, looked up)
chain: B1 chain with S59A
notes: Primase-Polymerase (PrimPol), human, C-terminal domain, residues 480-560, phospho-null mutant S538A; also called C-terminal region of mutant PrimPol; CTD S538A; source: E. coli BL21, purified (Ni-NTA, Q-Sepharose, Superdex 75 SEC)
Does B3 bind?
Result: binds
